From IntAct's records for PubMed 16127465

B1: Growth/differentiation factor 5 (Homo sapiens), P43026 (parent)
chain: MRLPKLLTFLLWYLAWLDLEFICTVLGAPDLGQRPQGTRPGLAKAEAKERPPLARNVFRPGGHSYGGGATNANARAKGGTGQTGGLTQPKKDEPKKLPPRPGGPEPKPGHPPQTRQATARTVTPKGQLPGGKAPPKAGSVPSSFLLKKAREPGPPREPKEPFRPPPITPHEYMLSLYRTLSDADRKGGNSSVKLEAGLANTITSFIDKGQDDRGPVVRKQRYVFDISALEKDGLLGAELRILRKKPSDTAKPAAPGGGRAAQLKLSSCPSGRQPAALLDVRSVPGLDGSGWEVFDIWKLFRNFKNSAQLCLELEAWERGRAVDLRGLGFDRAARQVHEKALFLVFGRTKKRDLFFNEIKARSGQDDKTVYEYLFSQRRKRRAPLATRQGKRPSKNLKARCSRKALHVNFKDMGWDDWIIAPLEYEAFHCEGLCEFPLRSHLEPTNHAVIQTLMNSMDPESTPPTCCVPTRLSPISILFIDSANNVVYKQYEDMVVESCGCR

Variants of: B1
Settings: with bmr1b_human BMPR1B

| effect of a mutation on the interaction | Variant |
| --- | --- |
| decreasing interaction strength | L441P |

Variants of: B1
Settings: with bmr1a_human BMPR1A

| effect of a mutation on the interaction | Variant |
| --- | --- |
| increasing interaction strength | R438L |
